Reference: IntAct's records for PubMed 21224850

B1: Cell division protein SepF (Bacillus subtilis), O31728 (parent)
chain: MSMKNKLKNFFSMEDEEYEYEYIETERESHEEHEQKEKPAYNGNKPAGKQNVVSLQSVQKSSKVVLSEPRVYAEAQEIADHLKNRRAVVVNLQRIQHDQAKRIVDFLSGTVYAIGGDIQRIGSDIFLCTPDNVDVSGTISELISEDEHQRW
partner: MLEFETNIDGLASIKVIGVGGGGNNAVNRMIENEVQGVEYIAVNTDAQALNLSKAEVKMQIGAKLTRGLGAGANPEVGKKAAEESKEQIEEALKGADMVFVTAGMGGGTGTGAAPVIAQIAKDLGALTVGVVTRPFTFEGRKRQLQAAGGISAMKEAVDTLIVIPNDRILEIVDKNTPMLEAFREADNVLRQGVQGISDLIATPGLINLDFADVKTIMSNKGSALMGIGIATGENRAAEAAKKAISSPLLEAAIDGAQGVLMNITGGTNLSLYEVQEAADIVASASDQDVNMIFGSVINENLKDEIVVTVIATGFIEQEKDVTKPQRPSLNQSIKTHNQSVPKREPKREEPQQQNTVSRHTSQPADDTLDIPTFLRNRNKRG

Variants of: B1
Conditions: with ftsz_bacsu ftsZ

effect of a mutation on the interaction	Variant
disrupting interaction	MSMKNKLKNFFSMEDEEYEYEYIETERESHEEHEQKEKPAYNGNKPAGKQNVVSLQSVQKSSKVVLSEPRVYAEAQEIADHLKNRRAVVVNLQRIQHDQVKRIVDFLSGTVYAIGGDIQRIGSDIFLCTPDNVDVSGTISELISEDEHQRW [A100V]

Variants of: B1
Conditions: with ftsz_bacsu ftsZ
Remark: another data set of the same source

effect of a mutation on the interaction	Variant
disrupting interaction	MSMKNKLKNFFSMEDEEYEYEYIETERESHEEHEQKEKPAYNGNKPAGKQNVVSLQSVQKSSKVVLSEPRVYAEAQEIADHLKNRRAVVVNLQRIQHDQAKRIVDFLSGTVYAIGGDIQRIGSDISLCTPDNVDVSGTISELISEDEHQRW [F126S]
